Measured values from paper PMC13056932 (Nature Communications, 2026).

Assays:
[1] = target: large tegument protein VP1/2 (ORF22) (Varicella-zoster virus (parental Oka strain)) (UniProt P09278); experiment: cryo-EM structure
[2] = target: the molecule itself; experiment: cryo-EM structure

| Molecule | stoichiometry N [1] | stoichiometry N [2] |
| --- | --- | --- |
| large tegument protein VP1/2 (ORF22), P09278 1-2763 | 2 | – |
| capsid vertex-specific component 2 (CVC2; ORF34) (natural protein, UniProt P09287 1-579, looked up) MTARYGFGSISFPNKCGIFLSTTKNFIAPNFPIHYWTAPAFELRGRMNPDLEKNTLTLKNAAAVAALDNLRGETITLPTEIDRRLKPLEEQLTRMAKVLDSLETAAAEAEEADAQSEECTRTEIIRNESIHPEVQIAKNDAPLQYDTNFQVDFITLVYLGRARGNNSPGIVFGPWYRTLQERLVLDRPVAARGVDCKDGRISRTFMNTTVTCLQSAGRMYVGDRAYSAFECAVLCLYLMYRTSNSVHEPQVSSFGNLIEHLPEYTETFVNYMTTHENKNSYQFCYDRLPRDQFHARGGRYDQGALTSHSVMDALIRLQVLPPAPGQFNPGVNDIIDRNHTAYVDKIQQAAAAYLERAQNVFLMEDQTLLRLTIDTITALLLLRRLLWNGNVYGDKLKNNFQLGLIVSEATGTPTNNVILRGATGFDGKFKSGNNNFQFLCERYIAPLYTLNRTTELTEMFPGLVALCLDAHTQLSRGSLGRTVIDISSGQYQDRLISLIALELEHRRQNVTSLPIAAVVSIHDSVMLQYERGLGMLMHQPRVRAALEESRRLAQFNVNSDYDLLYFVCLGVIPQFASTP | – | 2 |
| capsid triplex protein 2 (TRX2; ORF41) (natural protein, UniProt P09291 1-316, looked up) MAMPFEIEVLLPGELSPAETSALQKCEGKIITFSTLRHRASLVDIALSSYYINGAPPDTLSLLEAYRMRFAAVITRVIPGKLLAHAIGVGTPTPGLFIQNTSPVDLCNGDYICLLPPVFGSADSIRLDSVGLEIVFPLTIPQTLMREIIAKVVARAVERTAAGAQILPHEVLRGADVICYNGRRYELETNLQHRDGSDAAIRTLVLNLMFSINEGCLLLLALIPTLLVQGAHDGYVNLLIQTANCVRETGQLINIPPMPRIQDGHRRFPIYETISSWISTSSRLGDTLGTRAILRVCVFDGPSTVHPGDRTAVIQV | – | 2 |
